In publication PMC11242946 (Molecules, 2024):

Biological target: T1, human ACE2 protein (human, UniProt Q9BYF1 18-740)
T1 construct: No catalogue number is printed; also called angiotensin-converting enzyme-2
Experiment: adsorption isotherm on protein-coupled resin (depletion, micro-BCA)
Conditions: both partners purified

T1 sequence (Q9BYF1 18-740): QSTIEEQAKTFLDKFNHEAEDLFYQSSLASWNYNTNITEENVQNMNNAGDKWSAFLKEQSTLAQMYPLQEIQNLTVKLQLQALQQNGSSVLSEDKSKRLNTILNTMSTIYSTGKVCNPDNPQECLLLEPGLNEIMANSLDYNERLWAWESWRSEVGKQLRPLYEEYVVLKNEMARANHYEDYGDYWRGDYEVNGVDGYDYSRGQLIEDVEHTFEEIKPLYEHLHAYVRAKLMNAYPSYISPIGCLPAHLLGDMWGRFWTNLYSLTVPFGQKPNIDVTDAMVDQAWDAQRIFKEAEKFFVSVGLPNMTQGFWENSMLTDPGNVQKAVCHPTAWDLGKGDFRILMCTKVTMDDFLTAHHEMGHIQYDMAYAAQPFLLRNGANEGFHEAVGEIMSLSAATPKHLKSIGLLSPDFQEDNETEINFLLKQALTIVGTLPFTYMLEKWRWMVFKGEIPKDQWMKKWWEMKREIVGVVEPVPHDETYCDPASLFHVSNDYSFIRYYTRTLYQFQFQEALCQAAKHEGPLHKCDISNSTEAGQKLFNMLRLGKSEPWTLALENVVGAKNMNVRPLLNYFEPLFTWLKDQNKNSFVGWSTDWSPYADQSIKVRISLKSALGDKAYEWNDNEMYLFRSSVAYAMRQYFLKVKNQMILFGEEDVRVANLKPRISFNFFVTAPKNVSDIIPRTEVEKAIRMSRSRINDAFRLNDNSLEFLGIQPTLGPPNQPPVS

B1: functional peptide KYPAY (K5) (peptide)
peptide: KYPAY
B1 showed a Kd of 12.5 µM.
